Test results as given in paper PMC5321526.

Target: MVV IN construct spanning the C-terminal domain (CTD), as crystallised (maedi-visna virus (MVV))
Assay: crystal structure

Work on “MVV IN construct spanning the C-terminal domain (CTD), as crystallised (domain or fragment)” yielded a stoichiometry N of 2.
